# Test results as given in patent publication US20240209068A1.
# Legend:
# [1] = target: Clostridium difficile toxin A (purified) (Clostridium difficile) (UniProt P16154)
# [2] = target: Clostridium difficile toxin A (purified) (Clostridium difficile) (UniProt P16154); experiment: cell-based or functional assay
# Actoxumab IgA2m1, sequence (heavy, form in doubt): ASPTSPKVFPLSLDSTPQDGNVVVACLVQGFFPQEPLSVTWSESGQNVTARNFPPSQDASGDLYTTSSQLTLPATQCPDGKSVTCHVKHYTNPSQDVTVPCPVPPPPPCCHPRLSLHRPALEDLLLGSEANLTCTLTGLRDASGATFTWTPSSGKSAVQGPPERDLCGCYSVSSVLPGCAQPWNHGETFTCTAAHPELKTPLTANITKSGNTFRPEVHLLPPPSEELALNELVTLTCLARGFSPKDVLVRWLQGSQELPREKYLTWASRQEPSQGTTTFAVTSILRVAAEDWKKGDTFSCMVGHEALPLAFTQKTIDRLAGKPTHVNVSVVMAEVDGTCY
# Actoxumab IgA2m1, sequence (P01591 whole entry, form in doubt): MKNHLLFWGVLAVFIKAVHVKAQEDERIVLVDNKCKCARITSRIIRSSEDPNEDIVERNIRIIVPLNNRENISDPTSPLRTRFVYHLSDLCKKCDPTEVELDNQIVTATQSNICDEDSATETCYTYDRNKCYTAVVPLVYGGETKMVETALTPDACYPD
substance,measurement,setting,value
Actoxumab IgA2m1 (antibody),"IC50 (read off the curve); % neutralization of Toxin A on Vero cells (alamarBlue), curve 'Actoxumab IgA2m1 Protein'",[1],0.03 µg/mL
same,"IC50 (read off the curve); % neutralization of Toxin A on Vero cells (alamarBlue), curve 'Actoxumab IgA2m1 mRNA'",[1],0.01 µg/mL
same,potency (IC50) of Toxin A neutralization on Vero cells relative to Actoxumab IgG; antibody from mRNA-transfected cell supernatant,[2],200 fold
same,potency (IC50) of Toxin A neutralization on Vero cells relative to Actoxumab IgG; recombinant antibody protein,[2],200 fold
